From PMC7736784
Where two headings read alike, the source gives them in different places.

What was measured:
[1] = target: Sso7d-NanoLuc large fragment fusion
[2] = target: Sso7d-NanoLuc large fragment fusion; remark: listed apart in the source

Substance	Kd [1]	Kd [2]
NS2-Stoffel fusion (NanoLuc small fragment NS2)	190 µM	–
NS3	–	0.18 µM
